From paper PMC3750474 (2013)
Residue numbers refer to the chain shown, from its start. In names and notes the source's numbering stands.

Assays:
[1] = molecular target: T1, FIV N-terminal capsid domain (feline immunodeficiency virus (FIV)); experiment: ITC
T1 chain: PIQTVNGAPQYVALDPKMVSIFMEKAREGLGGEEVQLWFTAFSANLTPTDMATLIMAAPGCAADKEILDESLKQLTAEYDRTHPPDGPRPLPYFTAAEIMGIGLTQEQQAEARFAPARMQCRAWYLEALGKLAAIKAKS

[2] = molecular target: HIV-1 M-group (NL4-3) N-terminal capsid domain (HIV-1 M-group (NL4-3)); experiment: ITC

B1: cyclophilin domain from human NUP358 (domain or fragment)
chain: ELSKETNPVVFFDVCADGEPLGRITMELFSNIVPRTAENFRALCTGEKGFGFKNSIFHRVIPDFVCQGGDITKHDGTGGQSIYGDKFEDENFDVKHTGPGLLSMANQGQNTNNSQFVITLKKAEHLDFKHVVFGFVKDGMDTVKKIESFGSPKGSVCRRITITECGQI
Q: B1 was tested. Which Kd [1] did it give?
A: Its Kd is 290 µM.

B2: NUP358Cyp V113F (domain or fragment)
chain: B1 chain with V117F
Q: With B2 as the binder, how does the Kd [2] read?
A: The Kd was 92 µM.

B3: NUP358Cyp V61M/V113F (domain or fragment)
chain: B1 chain with V65M, V117F
Q: How did the Kd [2] turn out when B3 was run?
A: The Kd was 31 µM.
